Three substances from patent EP2954934A1 (3B Pharmaceuticals GmbH, dated 2015) can be followed below.

Assay [1] deals with NTR1 on HT29 or NTR1-expressing HEK293 cells (UniProt P30989). Kind of assay: cell-based or functional assay.
Assay [2] deals with human neurotensin receptor 1 (NTR1) prepared from CHO cells recombinantly expressing the human receptor (human) (UniProt P30989). Kind of assay: radioligand displacement, 125I-(Tyr3-neurotensin) on human NTR1 from CHO cells.
Chain of human neurotensin receptor 1 (NTR1) prepared from CHO cells recombinantly expressing the human receptor (human) (P30989 whole entry): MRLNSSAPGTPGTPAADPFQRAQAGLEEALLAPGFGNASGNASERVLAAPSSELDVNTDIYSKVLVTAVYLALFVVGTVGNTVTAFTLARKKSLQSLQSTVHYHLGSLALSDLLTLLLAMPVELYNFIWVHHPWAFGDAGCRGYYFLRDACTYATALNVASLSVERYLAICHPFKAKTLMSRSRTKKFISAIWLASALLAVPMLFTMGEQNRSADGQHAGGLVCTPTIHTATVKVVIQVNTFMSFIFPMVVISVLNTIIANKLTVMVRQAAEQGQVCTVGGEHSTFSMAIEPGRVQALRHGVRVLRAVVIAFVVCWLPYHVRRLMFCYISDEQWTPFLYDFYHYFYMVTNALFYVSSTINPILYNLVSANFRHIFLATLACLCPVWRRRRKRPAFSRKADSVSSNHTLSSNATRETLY

Chain of NTR1 on HT29 or NTR1-expressing HEK293 cells (P30989 whole entry): as above

In assay [1], “1206-Glutar-Ttds-Lys(1206-Glutar-Ttds)-Ttds-Asn-Ala-Val-Pro-Asn-Leu-Arg-Gly-Asp-Leu-Gln-Val-Leu-Ala- (peptide)” returned an Agonistic Effect EC50 [nM] (functional Ca2+ mobilisation assay) above 50000 nM and an Antagonistic Effect IC50 [nM] (functional Ca2+ mobilisation assay) of 12 nM. Besides, in assay [2], the IC50 came out at 7.5 nM.

In assay [1], “1206-Glutar-Ttds-Lys(DOTA)-Ttds-GABA-Asn-Ala-Val-Pro-Asn-Leu-Arg-Gly-Asp-Leu-Gln-Val-Leu-Ala-Gln-Lys (peptide)” gave an Agonistic Effect EC50 [nM] (functional Ca2+ mobilisation assay) above 50000 nM and an Antagonistic Effect IC50 [nM] (functional Ca2+ mobilisation assay) of 18 nM. Also, in assay [2], the IC50 was 10 nM.

In assay [1], “1206-Glutar-Ttds3-Asn-Ala-Val-Pro-Asn-Leu-Arg-Gly-Asp-Leu-Gln-Val-Leu-Ala-Gln-Lys-Val-Ala-Arg-Thr-GA (peptide)” displayed an Agonistic Effect EC50 [nM] (functional Ca2+ mobilisation assay) above 50000 nM and an Antagonistic Effect IC50 [nM] (functional Ca2+ mobilisation assay) of 38 nM. In assay [2], the IC50 came to 9.9 nM.
